Experimental data reported in the RNAGym collection of RNA variant scans (doi:10.1073/pnas.2313332121).
Variants at the floor of the assay were thinned out.

B1: TPR 5TU (parent)
chain: GGAUCUUCUCGAUCUAACAAAAAAGACAAAUCUGCCACAAAGCUUGAGAGCAUCUUCGGAUGCAGAGGCGGCAGCCUUCGGUGGCGCGAUAGCGCCAACGUUCUCAACUAUGACACGCAAAACGCGUGCUCCGUUGAAUGGAGUUUAUCAUG

Variants of: B1
Experiment: polymerase ribozyme fitness, log enrichment relative to wild type (log ratio); higher = more active; in vitro selection for triplet polymerase activity
Procedure, shortened: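 To select mutant libraries of each subunit of a heterodimeric triplet polymerase ribozyme, built by PCR and transcribed, each was annealed with a biotinylated primer, partner subunit and triplets, then incubated frozen at −7 °C. Extended constructs were gel-excised, captured on streptavidin beads and amplified by RT-PCR, in one round carried out in triplicate. Illumina sequencing of input and output libraries kept genotypes with ≥10 input reads and ≥1 read per output. Fitness is the base-2 logarithm of genotype enrichment relative to wild-type enrichment, from inverse-variance-weighted replicate averages.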

Variant	polymerase ribozyme fitness (log ratio)
GGAUCUUCUCGAUCUAACAAAAAAGACACAUCUGCCACAAAGCUUGAGAGCAUCUUCGGAUGCAGAGGCGGCAGCCUUGGGUGGCGCGAUAGCGCUAACGUUCCCAACUAUGACACGCAAAACGCGUGCUCCGUUGAAUGGAGUUUAUCAUG [A29C C79G C96U U104C]	≤ -4.2
GGAUCUUCUCGAUCUAACAAAAAAGACACAUCUGCCACAAAGCUUUAGAGCAUCUUCGGAUGCAGAGGCGGCAGCCUUCGGUGGCGCGAUAGCGCCAACGUUCUCAACUAUGACACGCAAAACGCGGGCUCCGUUGAAUGGAGUUUAUCAUG [A29C G46U U127G]	≤ -4.2
GGAUCUUCUCGAUCUAACAAAAAAGACAGAUCUGCCACAAAGCUUGAGGGUAUCUUCGGAUGCAGAGGCAGCAGCCUUCGGUGGCGCGAUAGCGCCAACGUUCUCAUCUAUGACACGCAAAACGCGUGCUCCGUUGAAUGGAGUUUAUCAUG [A29G A49G C51U G70A A107U]	≤ -4.2
GGAUCUUCUCGAUCUAACAAAAAAGACACAUCUGCCACAAAGCUUGAGAGCAUCUUCGGAUGCAGAGGCGGCAGCCUUCGGUGGCGCGAUAGCGCAAACGUGCUCAACUAUGACACGCAAAACUCGUGCUCCGUUGAAUGGAGUUUAUCAUG [A29C C96A U102G G124U]	≤ -4.2
GGAUCUUCUCGAUCUAACAAAAAAGACUAAUCUGCCACAAAGCUUGAGAGCAUCUACGGAUGCAGAGGCGGCAGCCUUCGGUGGCGCGAUAGCGCCGACGUUCUCAACUAUGACACGCAAAACGCGUGCUCCGUUGAAUGGAGUUUAUCAUG [A28U U56A A97G]	≤ -4.2
GGAUCUUCUCGAUCUAACAAAAAAGACACAUCUGCCACAAAGCUUGAGAGCAUCUUCGGAUGCAGAGGCGGCAGCCUUCGGUGGCGCGAUAGCCCCGGCGUUCGCAACUAUGACACGCAAAACGCGUGCUCCGUUGAAUGGAGUUUAUCAUG [A29C G94C A97G A98G U104G]	≤ -4.2
GGAUCUUCUCGAUCUAACAAAAAAGACAGAUCUGCCACAAAGCUUGAGAGCAUCUUAGGAUGCAGAGGCGGCAGCCUUCGGUGGCGCGAUAGAGCAAACGUUCUCAACUAUGACACGCAAAACGCGUGCUCCGUUGAAUGGAGUGUAUCAUG [A29G C57A C93A C96A U145G]	≤ -4.2
GGAUCUUCUCGAUCUAACAAAAAAGACAGAUCUGCCACAAAGCUUGAGAGCAUCUUCGGAUGCAGAGGCGGCAGUCUUCGGUGGCGCGAUAGCGCUAACGUUCUCAACUAUGACACGCAAAACGCGUGCUCCGUUGAAGGGAGUUUAUCAUG [A29G C75U C96U U139G]	≤ -4.2
GGAUCUUCUCGAUCUAACAAAAAAGACACUUCUGCCACAAAGCUUGAGAGCAUCUUCGGAUGCAGAGGCGGCAGCCUUCGGUGGCGCGCUAGCGCCAACGUUCUCAACUAUGACACGCAAAACGCGUGCUCCGUUGAAUGGAGUUUAUCAUG [A29C A30U A89C]	≤ -4.2
GGAUCUUCUCGAUCUAACAAAAAAGACAGAUCUGCCACAAAGCUUGAGAGCAUCUUCGGAUGCAGAGGCGGCAGCCUUCGGUGGAGCGAUAGCGCCAACGUUCUCAACUAUGAAACGCAAGACGCGUGCUCCGCUGAAUGGAGUUUAUCAUG [A29G C85A C114A A121G U134C]	≤ -4.2
GGAUCUUCUCGAUCUAACAAAAAAGACACAUCUGCCACAAAGCUUGAGAGCAUCUUCGGAUGCAGAGGCGGCAGCCUUCGGUGGCGUGAUAGCUCCAACGUUCUCACCUAUGACACGCAAAACGCGGGCUCCGUUGAAUAGAGUUUAUCAUG [A29C C87U G94U A107C U127G G140A]	≤ -4.2
GGAUCUUCUCGAUCUAACAAAAAAGACACAUCUGCCACAAGGCUUUAGGGCAUCUUCGGAUGCAGAGGCGGCAGUCUUCGGUAGCGCGAUAGCGCCAACGUUCUCAACUAUGACACGCAAGACGCGUGCUCCGUUGAAUGGAGUUUAUCAUU [A29C A41G G46U A49G C75U G83A A121G G152U]	≤ -4.2
GGAUCUUCUCGAUCUAACAAAAAAGACACAUCUGCCACAAAGCUUGAGAGCGUCUUCGGAAGCAGAGGCGGCAGCCUUCGGUGGCGCGAUAGCGCCAACGUUCUCAACUAUGACACGCAAAUCGCGUGCUCCGUUGAAUGUAGUUUAUCAUG [A29C A52G U61A A122U G141U]	≤ -4.2
GGAUCUUCUCGAUCUAACAAAAAAGACACAUCUGCCACAAAGCUUGAGAGCAUCUUUGGAUGCAGAGGCGGCAGCCUUCGGUGGCGCGAUAGCGCCAACGUUCGCAACUAUGACACGCAAAACGCGUUCUCCGUUGAAUGGAGUUUAUCAUG [A29C C57U U104G G128U]	≤ -4.2
GGAUCUUCUCGAUCUAACAAAAAAGACAGAUCUGCCACAAAGCUUGAGAGCCUCUUCGGAUGCAGAGGCGGCAACCUUCGGUGGCGCGAUAUCGGCAACGUUCUCAACUAUGACACGCAAAACGCGUGCUCCGUUGAAUGGAGUUUAUCAUG [A29G A52C G74A G92U C95G]	≤ -4.2
GGAUCUUCUCGAUCUAACAAAAAAGACACAUCAGCCACAACGCUAGAGAGCAUCUUCGGAUGCAGAGGCGGCAGCCUUCGGUGGCGCGAUGGCGCCAACGUUCUCAACUAUGACACGCAAAACGCGUGCUCCGUUGAAUGGAGUUUAUCAUG [A29C U33A A41C U45A A91G]	≤ -4.2
GGAUCUUCUCGAUCUAACAAAAAAGACACCUCUGCCACAAAGCUUGAGAGCAUCUUCGGAUCCAGAGGCGGCAGCCUUCGGUGGCGCGAUAGCGCCAACGUUCUCAACUAUGACACGCAAAACGGGUGCUCCGUUGGAUGGUGUUUAUCAUG [A29C A30C G62C C125G A137G A142U]	-4.11
GGAUCUUCUCGAUCUAACAAAAAAGACACAUCUGCCACAAAGCUUGAGAGCAUCUUCGGAUGCAGAGGCGGCAGCCUUCGGUGGCGCCAUAUCGCCAACGUUCUCAACUAUGACACGCAAAACGCGUGCUCCGUUGAAUGGAGUUUAUCAUG [A29C G88C G92U]	≤ -4.2
GGAUCUUCUCGAUCUAACAAAAAAGACACAUCUGACACAAAGCUUGAGAGCAACUUUGGAUGCAGAGGCGGCAGCCUUCGGUGGCGCGAUAACGCCAACGUUCUCAACUAUGACACGUAAAGCGCGUGCUCCGUUAAAUGGAGUUUAUUAUG [A29C C35A U53A C57U G92A C118U A122G G136A C149U]	≤ -4.2
